Numbering of substitutions follows the chain as printed. One block for each binder: values may come before it.
Assays:
[1] = biological target: T1, human CD4 on cells (SKW3 cells; human PBMCs) (human, UniProt P01730 26-458); experiment: FACS primary screen, non-clonal hybridoma supernatant, SKW3 vs SKW3 CD4 knockout cells, anti-mouse Fc A647
T1 construct: whole, on cells; SKW3 CD4 knockout cells served as the negative cell line; also called hCD4

[2] = biological target: T1, human CD4 on cells (SKW3 cells; human …); experiment: FACS confirmation, supernatant on human PBMCs, anti-mouse Fc 647, CD4+ percent of viable cells
[3] = biological target: T1, human CD4 on cells (SKW3 cells; human …); experiment: FACS confirmation, supernatant on SKW3 WT cells, anti-human kappa FITC; background gMFI 2500
huCD4-HIS = biological target: T2, huCD4-HIS (human, UniProt P01730 26-390, limits assumed); experiment: ELISA binning, competitor Ibalizumab; 100 ng/mL huCD4-HIS, anti-HIS HRP detection; background 45, max binding 3000000
T2 construct: the ELISA binning is not described in the text of this stretch

[4] = biological target: T1, human CD4 on cells (SKW3 cells; human …); experiment: FACS confirmation, supernatant on human PBMCs, anti-mouse Fc 647, CD4+ gate
[5] = biological target: T1, human CD4 on cells (SKW3 cells; human …); experiment: FACS binning on SKW3 cells pre-incubated with supernatant; competitor RPA-T4-PE-Dazzle 594, its signal read; background 783, max binding 15000
[6] = biological target: T1, human CD4 on cells (SKW3 cells; human …); experiment: FACS binning on SKW3 cells pre-incubated with supernatant; competitor OKT4a read with anti-human A647 secondary; background 5000, max binding 35000
[7] = biological target: T1, human CD4 on cells (SKW3 cells; human …); experiment: FACS primary screen, non-clonal hybridoma supernatant, SKW3 vs SKW3 CD4 knockout cells, anti-human kappa FITC
[8] = biological target: T1, human CD4 on cells (SKW3 cells; human …); experiment: FACS binning on SKW3 cells pre-incubated with supernatant; competitor OKT4-A488, its signal read; background 2163, max binding 8200
[9] = biological target: T1, human CD4 on cells (SKW3 cells; human …); experiment: FACS confirmation, supernatant on SKW3 WT cells, anti-mouse Fc 647; background gMFI 3300

SKW3 WT vs KO anti-mFc-647 [1]: 4 fold
SKW3 WT anti-hu Kappa FITC, gMFI [3]: 6700 gMFI
Ibalizumab ELISA binning signal (huCD4-HIS): 1.18e+06
PBMCs, anti-mFc 647 CD4+ gate - RL1 Binding [4]: 267000
SKW3 FACS Binning RPA-T4-PE-Dazzle 594 [5]: 2190
SKW3 FACS Binning OKT4a anti-hu A647 Secondary [6]: 37600
SKW3 WT vs KO anti-hKappa-FITC [7]: 1.8 fold
SKW3 FACS Binning OKT4 A488 [8]: 9730
SKW3 WT anti-mFc 647, gMFI [9]: 35900 gMFI
B1: 75110_05K11A (antibody, IgG1, V domains shown)
VH: EVQLVESGGGLVQPGGSLRLSCAASGFTFSSYDMHWVRQPTGKGLEWVSTIGTAGDTYYPASVKGRFTISRENAKNSLYLQMNSLRAGDTAVYYCARGGFYYYGMDVWGQGTTVTVSS
VL: EIVLTQSPGTLSLSPGERVTLSCRASQSVSNTYLAWYQQKPGQAPRLLIYGASSRATGIPDRFSGSGSGTDFTLTISRLEPEDFVVYYCQQHGSSPFTFGPGTKVDIK
notes: Tested as non-clonal AlivaMab Mouse Kappa hybridoma supernatant: human variable domains and human kappa, mouse Fc
PBMCs, anti-mFc 647 CD4+ Percent Bound of Viable [2]: 31%

SKW3 WT vs KO anti-mFc-647 [1]: 6.3 fold
SKW3 WT anti-hu Kappa FITC, gMFI [3]: 6830 gMFI
Ibalizumab ELISA binning signal (huCD4-HIS): 52600
PBMCs, anti-mFc 647 CD4+ gate - RL1 Binding [4]: 255000
SKW3 FACS Binning RPA-T4-PE-Dazzle 594 [5]: 13500
SKW3 FACS Binning OKT4a anti-hu A647 Secondary [6]: 6740
SKW3 WT vs KO anti-hKappa-FITC [7]: 2.3 fold
SKW3 FACS Binning OKT4 A488 [8]: 9640
SKW3 WT anti-mFc 647, gMFI [9]: 32500 gMFI
B2: 75110_04G16A (antibody, V domains shown)
VH: QVQLQESGPGLVKPSQTLSLTCTVSGDSISSGYYYWSWIRQHPGKGLEWIGYISYSGSTYYNPSLKSRLTISVNTSKNQFSLKLSSLTAADTAVYYCARDRPSNFDAFDIWGQGTMVTVSS
VL: B1 VL with V19A, S30G, N31S, S53F, V85A, H92Y, F97L
notes: as for B1
PBMCs, anti-mFc 647 CD4+ Percent Bound of Viable [2]: 32%

SKW3 WT vs KO anti-mFc-647 [1]: 4.6 fold
SKW3 WT anti-hu Kappa FITC, gMFI [3]: 7520 gMFI
Ibalizumab ELISA binning signal (huCD4-HIS): 710000
PBMCs, anti-mFc 647 CD4+ gate - RL1 Binding [4]: 187000
SKW3 FACS Binning RPA-T4-PE-Dazzle 594 [5]: 20300
SKW3 FACS Binning OKT4a anti-hu A647 Secondary [6]: 6110
SKW3 WT vs KO anti-hKappa-FITC [7]: 2.8 fold
SKW3 FACS Binning OKT4 A488 [8]: 9340
SKW3 WT anti-mFc 647, gMFI [9]: 24000 gMFI
B3: 75110_14P05A (antibody, V domains shown)
VH: B1 VH with M34V, P40A, A61G
VL: B1 VL with V19A, N31S, T32S, A44T, V85A, Y87F, H92S, I107V
notes: as for B1
PBMCs, anti-mFc 647 CD4+ Percent Bound of Viable [2]: 27%

SKW3 WT vs KO anti-mFc-647 [1]: 2.9 fold
SKW3 WT anti-hu Kappa FITC, gMFI [3]: 6360 gMFI
Ibalizumab ELISA binning signal (huCD4-HIS): 1.73e+06
PBMCs, anti-mFc 647 CD4+ gate - RL1 Binding [4]: 206000
SKW3 FACS Binning RPA-T4-PE-Dazzle 594 [5]: 2420
SKW3 FACS Binning OKT4a anti-hu A647 Secondary [6]: 31300
SKW3 WT vs KO anti-hKappa-FITC [7]: 1.8 fold
SKW3 FACS Binning OKT4 A488 [8]: 9940
SKW3 WT anti-mFc 647, gMFI [9]: 22000 gMFI
B4: 75110_07E04A (antibody, IgG1, V domains shown)
VH: B1 VH with A24V, P40A, A61G, N76K, S77F, F100Y
VL: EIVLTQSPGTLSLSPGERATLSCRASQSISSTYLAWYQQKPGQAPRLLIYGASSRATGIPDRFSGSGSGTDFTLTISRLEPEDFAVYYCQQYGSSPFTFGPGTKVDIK
notes: as for B1
PBMCs, anti-mFc 647 CD4+ Percent Bound of Viable [2]: 30%

Reference: patent publication US20220112288A1 (published 2022)
